± gives the standard deviation of the averaged measurements.
Experiment: total protein half-life in vivo (active degradation + dilution); higher = more stable protein
[1] = E. coli NCM3722 delta-clpP delta-lon delta-hslV, growth: N-lim chemostat, doubling time 6 h
[2] = E. coli NCM3722 delta-clpP, growth: N-lim chemostat, doubling time 6 h
[3] = E. coli NCM3722 delta-hslV, growth: N-lim chemostat, doubling time 6 h
[4] = E. coli NCM3722 delta-lon, growth: N-lim chemostat, doubling time 6 h
[5] = E. coli NCM3722 delta-smpB, growth: N-lim chemostat, doubling time 6 h
[6] = wild type E. coli NCM3722, growth: C-lim chemostat, doubling time 3 h
[7] = wild type E. coli NCM3722, growth: C-lim chemostat, doubling time 6 h
[8] = wild type E. coli NCM3722, growth: C-lim chemostat, doubling time 12 h
[9] = wild type E. coli NCM3722, growth: N-lim chemostat, doubling time 6 h
[10] = wild type E. coli NCM3722, growth: N-lim chemostat, doubling time 12 h
[11] = wild type E. coli NCM3722, growth: P-lim chemostat, doubling time 6 h
[12] = wild type E. coli NCM3722, growth: P-lim chemostat, doubling time 12 h

Sequence | total protein half-life in vivo [1] [h] | total protein half-life in vivo [2] [h] | total protein half-life in vivo [3] [h] | total protein half-life in vivo [4] [h] | total protein half-life in vivo [5] [h] | total protein half-life in vivo [6] [h] | total protein half-life in vivo [7] [h] | total protein half-life in vivo [8] [h] | total protein half-life in vivo [9] [h] | total protein half-life in vivo [10] [h] | total protein half-life in vivo [11] [h] | total protein half-life in vivo [12] [h]
MIETLLEVRNLSKTFRYRTGWFRRQTVEAVKPLSFTLREGQTLAIIGENGSGKSTLAKMLAGMIEPTSGELLIDDHPLHFGDYSFRSQRIRMIFQDPSTSLNPRQRISQILDFPLRLNTDLEPEQRRKQIIETMRMVGLLPDHVSYYPHMLAPGQKQRLGLARALILRPKVIIADEALASLDMSMRSQLINLMLELQEKQGISYIYVTQHIGMMKHISDQVLVMHQGEVVERGSTADVLASPLHELTKRLIAGHFGEALTADAWRKDR [P0AAH8] | 5.82 ± 0.14 | 5.86 ± 0.16 | 5.99 ± 0.16 | 5.26 ± 1.3 | 5.78 ± 0.3 | 2.97 ± 0.16 | 5.78 ± 0.22 | 11.5 ± 2.9 | 5.53 ± 0.077 | 12.1 ± 1.1 | 6.03 ± 0.55 | 12.51 ± 0.086
MIFTSSCCDNLSIDEIIERAEKGDCEAQYIVGFYYNRDSAIDSPDDEKAFYWLKLAAEQGHCEAQYSLGQKYTEDKSRHKDNEQAIFWLKKAALQGHTFASNALGWTLDRGEAPNYKEAVVWYQIAAESGMSYAQNNLGWMYRNGNGVAKDYALAFFWYKQAALQGHSDAQNNLADLYEDGKGVAQNKTLAAFWYLKSAQQGNRHAQFQIAWDYNAGEGVDQDYKQAMYWYLKAAAQGSVGAYVNIGYMYKHGQGVEKDYQAAFEWFTKAAECNDATAWYNLAIMYHYGEGRPVDLRQALDLYRKVQSSGTRDVSQEIRETEDLL | 6.2 |  |  |  |  |  |  |  |  |  |  | 
MIGRLRGIIIEKQPPLVLIEVGGVGYEVHMPMTCFYELPEAGQEAIVFTHFVVREDAQLLYGFNNKQERTLFKELIKTNGVGPKLALAILSGMSAQQFVNAVEREEVGALVKLPGIGKKTAERLIVEMKDRFKGLHGDLFTPAADLVLTSPASPATDDAEQEAVAALVALGYKPQEASRMVSKIARPDASSETLIREALRAAL [P0A809] | 5.02 ± 0.64 | 4.88 ± 0.9 | 5.46 ± 0.47 | 4.88 ± 0.49 | 5.59 ± 0.069 | 2.99 ± 0.28 | 5.04 ± 0.43 | 10.3 ± 3.1 | 4.95 ± 0.26 | 7.6 ± 0.43 | 3.73 ± 0.86 | 10.13 ± 0.068
MIIPALDLIDGTVVRLHQGDYGKQRDYGNDPLPRLQDYAAQGAEVLHLVDLTGAKDPAKRQIPLIKTLVAGVNVPVQVGGGVRSEEDVAALLEAGVARVVVGSTAVKSQDMVKGWFERFGADALVLALDVRIDEQGNKQVAVSGWQENSGVSLEQLVETYLPVGLKHVLCTDISRDGTLAGSNVSLYEEVCARYPQVAFQSSGGIGDIDDVAALRGTGVRGVIVGRALLEGKFTVKEAIACWQNA | 4.64 ± 0.11 | 3.46 ± 0.32 | 4.07 ± 0.29 | 4.52 ± 0.096 | 3.23 ± 0.34 | 3.21 ± 0.094 | 5.72 ± 0.66 | 10 ± 1.4 | 3.66 ± 0.097 | 5.29 ± 0.65 | 5.28 ± 0.072 | 9.43 ± 0.71
MIIRDENYFTDKYELTRTHSEVLEAVKVVKPGKTLDLGCGNGRNSLYLAANGYDVDAWDKNAMSIANVERIKSIENLDNLHTRVVDLNNLTFDRQYDFILSTVVLMFLEAKTIPGLIANMQRCTKPGGYNLIVAAMDTADYPCTVGFPFAFKEGELRRYYEGWERVKYNEDVGELHRTDANGNRIKLRFATMLARKK | 5.25 ± 0.98 | 4.08 ± 0.48 | 4.13 ± 0.29 | 5.98 ± 0.65 | 3.94 ± 0.12 | 2.93 ± 0.1 | 5.19 ± 0.19 | 8.23 ± 1.5 | 4.09 ± 0.12 | 6.9 ± 0.16 | 6.01 ± 0.67 | 11 ± 0.36
MIKFLSALILLLVTTAAQAERIRDLTSVQGVRQNSLIGYGLVVGLDGTGDQTTQTPFTTQTLNNMLSQLGITVPTGTNMQLKNVAAVMVTASLPPFGRQGQTIDVVVSSMGNAKSLRGGTLLMTPLKGVDSQVYALAQGNILVGGAGASAGGSSVQVNQLNGGRITNGAVIERELPSQFGVGNTLNLQLNDEDFSMAQQIADTINRVRGYGSATALDARTIQVRVPSGNSSQVRFLADIQNMQVNVTPQDAKVVINSRTGSVVMNREVTLDSCAVAQGNLSVTVNRQANVSQPDTPFGGGQTVVTPQTQIDLRQSGGSLQSVRSSASLNNVVRALNALGATPMDLMSILQSMQSAGCLRAKLEII [P0A6S3] |  |  |  |  |  | 2.203 ± 0.022 | 4.68 | 8.58 ± 1.3 |  |  |  | 
MIKHLVAPLVFTSLILTGCQSPQGKFTPEQVAAMQSYGFTESAGDWSLGLSDAILFAKNDYKLLPESQQQIQTMAAKLASTGLTHARMDGHTDNYGEDSYNEGLSLKRANVVADAWAMGGQIPRSNLTTQGLGKKYPIASNKTAQGRAENRRVAVVITTP | 1.39 |  |  |  |  | 0.967 |  |  | 1.84 |  | 1.9 | 4.97
MIKIGVIADDFTGATDIASFLVENGLPTVQINGVPTGKMPEAIDALVISLKTRSCPVVEATQQSLAALSWLQQQGCKQIYFKYCSTFDSTAKGNIGPVTDALMDALDTPFTVFSPALPVNGRTVYQGYLFVMNQLLAESGMRHHPVNPMTDSYLPRLVEAQSTGRCGVVSAHVFEQGVDAVRQELARLQQEGYRYAVLDALTEHHLEIQGEALRDAPLVTGGSGLAIGLARQWAQENGNQARKAGRPLAGRGVVLSGSCSQMTNRQVAHYRQIAPAREVDVARCLSIETLAAYAHELAEWVLGQESVLAPLVFATASTDALAAIQQQYGAQKASQAVETLFSQLAARLAAEGVTRFIVAGGETSGVVTQSLGIKGFHIGPTISPACRG | 5.65 ± 0.84 |  |  |  |  |  |  |  |  |  |  | 11.4
MIKKTTEIDAILLNLNKAIDAHYQWLVSMFHSVVARDASKPEITDNHSYGLCQFGRWIDHLGPLDNDELPYVRLMDSAHQHMHNCGRELMLAIVENHWQDAHFDAFQEGLLSFTAALTDYKIYLLTIRSNMDVLTGLPGRRVLDESFDHQLRNAEPLNLYLMLLDIDRFKLVNDTYGHLIGDVVLRTLATYLASWTRDYETVYRYGGEEFIIIVKAANDEEACRAGVRICQLVDNHAITHSEGHINITVTAGVSRAFPEEPLDVVIGRADRAMYEGKQTGRNRCMFIDEQNVINRV |  |  |  |  | 1.44 |  |  |  |  | 3.5 |  | 

— the supplement of paper PMC11246515
